Results from patent publication US20140087991A1, “PEPTIDE PRODRUGS” (The Johns Hopkins University, priority 2006, published 2014).

Experiments:
FAP [1] = biological target: T1, FAP (Homo sapiens, UniProt Q12884); experiment: FAP gelatinase and collagenase assay with quenched (DQ) proteins; type: biochemical
T1 construct: the extracellular domain of FAP was cloned with a His-6 tag; made in house
T1 sequence (Q12884 26-760 limits assumed): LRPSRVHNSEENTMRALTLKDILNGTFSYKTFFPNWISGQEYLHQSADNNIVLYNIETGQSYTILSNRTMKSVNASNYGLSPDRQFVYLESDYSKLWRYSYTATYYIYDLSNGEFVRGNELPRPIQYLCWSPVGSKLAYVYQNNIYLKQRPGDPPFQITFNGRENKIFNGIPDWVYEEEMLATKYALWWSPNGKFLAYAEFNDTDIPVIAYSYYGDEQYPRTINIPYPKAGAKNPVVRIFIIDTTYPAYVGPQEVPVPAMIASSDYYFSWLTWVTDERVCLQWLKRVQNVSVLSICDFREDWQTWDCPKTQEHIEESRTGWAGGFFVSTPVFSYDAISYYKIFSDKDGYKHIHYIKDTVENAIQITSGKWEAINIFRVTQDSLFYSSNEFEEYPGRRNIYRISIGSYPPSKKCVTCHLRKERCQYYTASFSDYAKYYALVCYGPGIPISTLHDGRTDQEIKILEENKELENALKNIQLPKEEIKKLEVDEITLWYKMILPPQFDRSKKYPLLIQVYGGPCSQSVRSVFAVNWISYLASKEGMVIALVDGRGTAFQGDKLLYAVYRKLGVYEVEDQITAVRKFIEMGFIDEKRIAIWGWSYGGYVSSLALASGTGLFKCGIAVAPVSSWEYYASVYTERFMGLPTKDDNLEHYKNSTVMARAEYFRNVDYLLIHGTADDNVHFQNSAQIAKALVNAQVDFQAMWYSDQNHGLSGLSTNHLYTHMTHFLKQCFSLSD
Description: Quenched gelatin and collagen conjugates were used to detect and confirm FAP's gelatinase and collagenase activity. DQ™ Gelatin from pig skin, DQ™ collagen, type IV from human placenta, DQ™ collagen, type I from bovine skin, all as fluorescent conjugates (Invitrogen, Rockville, Md.) were digested with FAP and digestion monitored on a fluorescence plate reader. Protein substrates were dissolved in reaction buffer (100 mM NaCl, 100 mM Tris, pH 7.8) to a final concentration of 100 μgs/ml. Trypsin digestion was used as a positive control. As a negative control the His tagged extra cellular domain of Prostate Specific Membrane Antigen (PSMA), which was similarly purified from S2 cells under the same conditions as FAP. Fluorescent quenched DQ™ Bovine Serum Albumin was used as a negative control for FAP protease activity.
Quenched forms of Gelatin and Collagen were used to confirm the gelatinase and collagenase activity of recombinant FAP. Quenching is achieved by labeling these proteins with the fluorophore FITC such that fluorescence signal from the intact protein is minimal due to is self-quenching by the fluorphore. Protein digestion releases FITC-labeled fragments that result in measurable increase in overall fluorescence signal from the reaction mixture. […] On a relative basis gelatin was digested ˜10-fold better by FAP than collagen I. MALDI analysis of digested fragments was performed to confirm hydrolysis.

FAP [2] = biological target: T1, FAP; experiment: LC-MS/MS cleavage map of FAP digest of 8.5 kDa recombinant human gelatin; type: biochemical; details: 8.5 kDa gelatin digest; for Normalized Ion Current: peak with lowest ion current assigned 1.0
Description: (§1) Human collagen I (Becton Dickinson, Franklin Lakes, N.J.) and recombinant human gelatins of 100 KDa and 8.5 KDa (Fibrogen, San Francisco, Calif.) were dissolved in reaction buffer to a final concentration of 100-300 μg/ml. 0.5-1 μg of FAP was added per 100 μgs of protein substrate. Digestion was done for 4-6 hrs at 37° C. As a positive control trypsin digestion was used. As a negative control, protein solutions were incubated either with BSA or buffer only. Peptide fragments of a size <30 KDa were purified using 30 KDa Microcon spin filter (Millipore, Billerica, Mass.).
(§2) Peptides obtained from FAP/gelatin digests were dried using a speedvac (Eppendorf), resuspended in LC/MS loading buffer (3% ACN, 0.1% formic acid), and analyzed using nano-flow LC/MS/MS on an Agilent 1100 series nano-LC system (Agilent) coupled to an LCQ Duo ion trap mass spectrometer (ThermoFinnigan). Peptides were pre-concentrated on a 5 mm Zorbax C18 trap column (Agilent) and then eluted onto a 100×0.075 mm custom-packed Biobasic C18 (ThermoElectron) reversed phase capillary column connected to a laser-pulled electrospray ionization emitter tip (New Objective) at a flowrate of 300 nl/min Peptides were eluted the nanospray source of the LCQ (Proxeon, Denmark) using the following gradient: 0% B at 0 min, 5% B at 8 min, 45% B at 50 min, 90% B at 55 min, 90% B at 60 min (B=0.1% formic acid in acetonitrile) at a spray voltage of 2.5 kV. The LCQ was operated in data-dependent mode using the Xcalibur software (ThermoFinnigan) in which every MS scan (400-1800 m/z) was followed by MS/MS scans (400-1800 m/z) on the 3 most intense ions using an isolation window of ±1.5 Da. Ions selected for MS/MS fragmentation were dynamically excluded for 30 s.
(§3) MS/MS data were searched against a collagen FASTA database using the SEQUEST search algorithm built into the Bioworks Browser (ThermoFinnigan) allowing for the variable modification of Methionine oxidation. Peptides were initially filtered in a charge dependent manner using an XCorr filter of 1.5, 2, and 2.5 for singly, doubly, and triply charged peptides. All MS/MS spectra used to identify peptides were manually inspected for validation of y and b-ion series. To quantify the relative abundance of each identified peptide we compared the ion current for each of the observed peptide parent ions from the MS spectra. The contribution of each parent ion to the total ion current was extracted and integrated over the peptide elution peak.
As Collagen I and Gelatin are currently the only known protein substrates for FAP, we needed to develop an alternative method to identify FAP-selective cleavage sites within these proteins. […] The masses of fragments <3 KDa were purified for MALDI spectra and again analyzed by FindPept tool. […]

FAP [3] = biological target: T1, FAP; experiment: LC-MS/MS cleavage map of FAP digest of 100 kDa recombinant human gelatin; type: biochemical; details: 100 kDa gelatin digest; for Percentage: share of all occurrences
Description: as §1, §2, §3
To resolve each particular mass fragment a Liquid Chromatograpy (LC) and Tandem mass spectroscopy (MS-MS) [LC-MS-MS] method was developed. Using this method, peptide fragments from FAP digests of the 8.5 kDa and 100 kDa recombinant gelatin were time-resolved by nano reverse phase LC (FIGS. 12 and 14) and then sequenced using an ion trap mass spectrometer operating in MS/MS mode. Initial methodological issues were worked out using the 8.5 kDa fragment before analyzing the entire 100 kDa protein. MS/MS spectra were searched against the 8.5 kDa and 100 kDa gelatin sequences using the SEQUEST algorithm with no cleavage specificity. Most of the identified cleavage sites in both sized gelatins occurred after Proline. However, FAP cleavage sites in these gelatins were not restricted to Proline alone. FAP was also found to cleave after Ala (e.g. A/A, A/G, A/P, A/R), Asp (e.g. D/G, D/T), Gly (e.g. G/A, G/E, G/L, G/Q, G/P, G/V), Glu (i.e., E/P), Lys (i.e., K/A, K/G), Ser (e.g. S/P) and Val (e.g. V/G).
To identify the most preferentially cleaved sites, we relatively quantified the abundance of each of the identified peptides by integrating the ion current generated by each peptide throughout the chromatogram. After identification of a peptide from a MS/MS spectrum, we extracted the ion current for the parent mass of the ion from the total MS ion chromatogram using a 1.5 Da tolerance window, and then integrated under the peak (FIGS. 12 and 14). […]

FAP [4] = biological target: T2, FAP (Homo sapiens, UniProt Q12884); details: previously demonstrated; cited from earlier work
T2 sequence (Q12884 1-760): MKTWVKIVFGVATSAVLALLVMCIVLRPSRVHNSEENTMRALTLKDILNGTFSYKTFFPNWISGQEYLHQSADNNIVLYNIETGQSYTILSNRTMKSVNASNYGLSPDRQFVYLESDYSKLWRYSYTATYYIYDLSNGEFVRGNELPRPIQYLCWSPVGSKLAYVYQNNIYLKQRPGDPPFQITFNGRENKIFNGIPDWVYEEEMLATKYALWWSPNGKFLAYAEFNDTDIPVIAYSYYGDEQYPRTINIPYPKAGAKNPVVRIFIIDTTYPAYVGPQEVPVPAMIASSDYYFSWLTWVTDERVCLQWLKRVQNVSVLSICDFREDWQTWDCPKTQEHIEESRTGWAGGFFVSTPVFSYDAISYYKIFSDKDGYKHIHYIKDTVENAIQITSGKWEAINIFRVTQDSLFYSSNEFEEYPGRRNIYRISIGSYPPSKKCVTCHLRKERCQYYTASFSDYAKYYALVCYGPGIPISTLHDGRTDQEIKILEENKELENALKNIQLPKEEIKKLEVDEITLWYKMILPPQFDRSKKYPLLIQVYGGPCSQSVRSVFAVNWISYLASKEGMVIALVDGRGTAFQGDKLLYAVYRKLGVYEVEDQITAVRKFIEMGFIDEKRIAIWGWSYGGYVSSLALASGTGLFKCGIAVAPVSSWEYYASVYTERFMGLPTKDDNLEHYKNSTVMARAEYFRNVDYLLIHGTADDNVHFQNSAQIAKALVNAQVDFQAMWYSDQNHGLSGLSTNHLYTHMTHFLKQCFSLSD

Substance	Occurences (FAP [3])	Percentage (FAP [3])	further results
Gelatin			digestion by FAP relative to collagen I (FAP [1]): ~10 fold; hydrolysis of FITC-quenched protein by FAP (FAP [1]; 100 μgs/ml protein substrate): readily hydrolyzed
P.AGKDGEAGAQGPPGP.A: FAP cleavage fragment of 100 kDa and 8.5 kDa recombinant human gelatin, MH+ 1308.62 (PAGKDGEAGAQGPPGPA)	2	0.95	relative abundance of fragment by integrated ion current (FAP [2]): most abundantly identified fragment; Normalized Ion Current (FAP [2]): 234.8
P.AGQDGRPGPPGPPGARGQAG.V: FAP cleavage fragment of 100 kDa and 8.5 kDa recombinant human gelatin, MH+ 1799.89	1	0.48	Normalized Ion Current (FAP [2]): 1.0
P.KGAAGEPGKAGERGVPGPPGAVGP.A: FAP cleavage fragment of 100 kDa and 8.5 kDa recombinant human gelatin, MH+ 2113.12	5	2.38	Normalized Ion Current (FAP [2]): 46.8
P.PGLAGPPGESGREGAPGAEGSPGRD.G: FAP cleavage fragment, 100 kDa recombinant human gelatin	2	0.95	
P.PGPAGAPGDKGESGP.S: FAP cleavage fragment, 100 kDa recombinant human gelatin	2	0.95	
P.QGFQGPPGEPGEPGASGP.M: FAP cleavage fragment, 100 kDa recombinant human gelatin	2	0.95	
P.QGVRGEPGPPGP.A: FAP cleavage fragment, 100 kDa recombinant human gelatin	3	1.43	
P.RGPPGSAGAPGKDGLNGLPGP.I: FAP cleavage fragment, 100 kDa recombinant human gelatin	14	6.67	
P.SGEPGKQGPSGASGERGPPGP.M: FAP cleavage fragment, 100 kDa recombinant human gelatin	4	1.90	
P.SGNAGPPGPPGP.A: FAP cleavage fragment, 100 kDa recombinant human gelatin	14	6.67	
P.TGARGAPGDRGEPGPPGP.A: FAP cleavage fragment, 100 kDa recombinant human gelatin	13	6.19	
P.VGPPGPPGPP.G: FAP cleavage fragment, 100 kDa recombinant human gelatin	3	1.43	
P.VGPPGPPGPPGPPGPP.: C-terminal FAP cleavage fragment, 100 kDa recombinant human gelatin (PVGPPGPPGPPGPPGPP)	19	9.05	relative abundance of fragment by integrated ion current (FAP [3]): most abundantly identified fragment
P.VGVQGPPGP.A: FAP cleavage fragment, 100 kDa recombinant human gelatin	3	1.43	
V.GPPGPPGPP.G: FAP cleavage fragment, 100 kDa recombinant human gelatin	2	0.95	
fibronectin			cleavage by FAP (FAP [4]): not
